Marks after values point to notes of the source that are not given here.
Tests used:
Assay type in all cases: cell-based
[1] = molecular target: T1, NaV1.6 (Homo sapiens, UniProt Q9UQD0); test: Whole-cell patch-clamp electrophysiology in HEK293 cells stably expressing NaV1.6 (HEK-NaV1.6); details: for effect on NaV1.6 currents / Peak current density, Nav1.6 (Treatment): HEK-NaV1.6 cells; for effect on NaV1.6 currents: 500 nM peptide vs control; for Peak current density, Nav1.6 (Treatment): mean ± SEM (n)
T1 construct: expressed in transfected cells; host or cells: HEK293 cells stably expressing NaV1.6
T1 sequence (Q9UQD0 whole entry): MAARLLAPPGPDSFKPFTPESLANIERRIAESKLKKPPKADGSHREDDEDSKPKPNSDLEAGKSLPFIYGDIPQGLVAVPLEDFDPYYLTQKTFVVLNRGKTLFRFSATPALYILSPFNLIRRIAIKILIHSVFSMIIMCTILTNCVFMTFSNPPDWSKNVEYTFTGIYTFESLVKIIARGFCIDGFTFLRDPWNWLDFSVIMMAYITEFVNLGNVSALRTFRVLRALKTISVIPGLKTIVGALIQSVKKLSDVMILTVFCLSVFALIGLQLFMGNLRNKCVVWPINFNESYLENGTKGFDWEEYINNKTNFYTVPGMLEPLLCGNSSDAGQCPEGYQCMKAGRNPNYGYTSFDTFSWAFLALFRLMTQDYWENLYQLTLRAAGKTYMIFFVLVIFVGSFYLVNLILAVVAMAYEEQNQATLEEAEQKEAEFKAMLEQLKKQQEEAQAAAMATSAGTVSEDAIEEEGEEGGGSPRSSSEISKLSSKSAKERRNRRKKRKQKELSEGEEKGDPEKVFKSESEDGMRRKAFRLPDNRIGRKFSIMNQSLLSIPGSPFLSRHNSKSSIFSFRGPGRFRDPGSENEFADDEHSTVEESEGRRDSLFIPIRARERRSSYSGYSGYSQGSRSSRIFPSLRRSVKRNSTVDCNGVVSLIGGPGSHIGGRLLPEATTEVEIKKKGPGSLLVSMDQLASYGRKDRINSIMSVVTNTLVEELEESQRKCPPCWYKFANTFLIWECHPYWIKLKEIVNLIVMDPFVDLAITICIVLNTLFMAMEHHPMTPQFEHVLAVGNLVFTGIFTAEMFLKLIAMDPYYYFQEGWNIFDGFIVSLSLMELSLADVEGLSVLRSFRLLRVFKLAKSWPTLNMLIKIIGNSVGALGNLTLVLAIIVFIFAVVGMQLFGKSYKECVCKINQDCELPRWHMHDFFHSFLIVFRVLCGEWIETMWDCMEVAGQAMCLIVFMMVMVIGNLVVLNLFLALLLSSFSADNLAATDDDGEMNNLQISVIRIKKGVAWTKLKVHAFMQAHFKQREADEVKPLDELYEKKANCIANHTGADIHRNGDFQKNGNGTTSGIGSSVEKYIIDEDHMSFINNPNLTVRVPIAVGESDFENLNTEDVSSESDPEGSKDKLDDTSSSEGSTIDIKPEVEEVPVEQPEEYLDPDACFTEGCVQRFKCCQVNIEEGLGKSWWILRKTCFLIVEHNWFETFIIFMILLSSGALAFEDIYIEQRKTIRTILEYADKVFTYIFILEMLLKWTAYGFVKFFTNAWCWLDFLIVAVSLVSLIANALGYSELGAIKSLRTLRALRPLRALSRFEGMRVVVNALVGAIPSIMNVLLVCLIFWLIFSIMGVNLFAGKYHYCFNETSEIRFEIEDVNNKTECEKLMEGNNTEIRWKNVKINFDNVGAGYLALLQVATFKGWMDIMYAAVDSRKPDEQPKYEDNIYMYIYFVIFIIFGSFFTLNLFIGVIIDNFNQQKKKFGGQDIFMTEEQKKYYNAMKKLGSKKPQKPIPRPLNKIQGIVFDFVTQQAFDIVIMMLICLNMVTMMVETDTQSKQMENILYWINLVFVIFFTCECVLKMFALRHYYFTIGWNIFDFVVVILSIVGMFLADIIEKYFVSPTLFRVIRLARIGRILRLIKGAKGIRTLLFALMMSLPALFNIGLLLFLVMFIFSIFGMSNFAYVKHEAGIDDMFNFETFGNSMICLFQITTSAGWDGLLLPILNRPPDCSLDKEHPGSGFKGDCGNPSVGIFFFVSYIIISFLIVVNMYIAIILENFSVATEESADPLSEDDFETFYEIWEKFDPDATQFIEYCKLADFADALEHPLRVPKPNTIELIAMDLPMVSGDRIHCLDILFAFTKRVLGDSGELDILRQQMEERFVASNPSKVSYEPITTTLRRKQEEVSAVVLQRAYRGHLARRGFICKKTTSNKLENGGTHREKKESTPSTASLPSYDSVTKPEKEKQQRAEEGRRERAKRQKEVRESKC
Protocol: HEK-NaV1.6 cells were plated at low density on glass cover slips for 3-4 hours and subsequently transferred to the recording chamber. Recordings were performed at room temperature (20-22° C.) after 48 h to thaw them using a MultiClamp 200B and 700B amplifier (Molecular Devices, Sunnyvale, CA). The composition of recording solutions consisted of the following salts; extracellular (mM): 140 NaCl, 3 KCl, 1 MgCl2, 1 CaCl2), 10 HEPES, 10 glucose, pH 7.3; intracellular (mM): 130 CH3O3SCs, 1 EGTA, 10 NaCl, 10 HEPES, pH 7.3. Membrane capacitance and series resistance were estimated by the dial settings on the amplifier and compensated for electronically by 70-75%. Data were acquired at 20 kHz and filtered at 5 kHz prior to digitization and storage. All experimental parameters were controlled by Clampex 9.2 software (Molecular Devices) and interfaced to the electrophysiological equipment using a Digidata 1200 analog-digital interface (Molecular Devices). Voltage-dependent inward currents for HEK-NaV 1.6 cells were evoked by depolarization to test potentials between −100 mV and +60 mV from a holding potential of −70 mV followed by a voltage pre-step pulse of −120 mV (Nar 1.6).
(§1) Current densities were obtained by dividing Na^+ current (INa^+) amplitude by membrane capacitance. Current-voltage relationships were generated by plotting current density as a function of the […].
(§2) Statistics were calculated as mean and standard error of the mean (mean SEM) using Prism 7 (La Jolla, CA). The statistical significance of observed differences among groups was determined by Student's t-test or for two group comparisons significance was tested with unpaired. Electrophysiological data analysis was performed using Clampfit 9 software (Molecular Devices).
To test whether Peptide 1, 3, 7 and 8 had any modulatory effects on NaV 1.6-mediated Na^+ currents, we used whole-cell patch-clamp electrophysiology in HEK293 cells stably expressing NaV1.6 (HEK-NaV1.6) channels; each group was either treated with peptides 1, 3, 7 and 8 (500 nM from a stock solution dissolved in H2O or DMSO) or H2O and 0.1% DMSO alone (control). […] However, peptide 7 potentiates the NaV1.6-mediated transient Na^+ currents (INa+), and were not statistically different compared to control (FIG. 17 A-C and Table 1).

[2] = molecular target: T2, NaV1.7 (Homo sapiens, UniProt Q15858); test: Patch-clamp electrophysiology of HEK-NaV1.7 stable cells; details: HEK-NaV1.7 cells, 500 nM peptide
T2 construct: expressed in transfected cells; host or cells: HEK293 (human embryonic kidney) cells stably expressing NaV1.7
Protocol: HEK-NaV1.7 stable cell lines were plated at low density on glass cover slips for 3-4 hours and subsequently transferred to the recording chamber. Recordings were performed at room temperature (20-22° C.) […] using a MultiClamp 700B amplifier (Molecular Devices, Sunnyvale, CA). The composition of recording solutions consisted of the following salts: extracellular (mM): 140 NaCl, 3 KCl, 1 MgCl2, 1 CaCl2), 10 HEPES, 10 glucose, pH 7.3; intracellular (mM): 130 CH3O3SCs, 1 EGTA, 10 NaCl, 10 HEPES, pH 7.3. Membrane capacitance and series resistance were estimated by the dial settings on the amplifier and compensated for electronically by 70-80%. Data were acquired at 20 kHz and filtered at 5 kHz prior to digitization and storage. All experimental parameters were controlled by Clampex 9.2 software (Molecular Devices) and interfaced to the electrophysiological equipment using a Digidata 1200 analog-digital interface (Molecular Devices). Voltage-dependent inward currents for HEK-NaV1.7 cells were evoked by depolarizations to test potentials between −100 mV and +60 mV from a holding potential of −70 mV followed by a voltage pre-step pulse of −120 mV (NaV1.7). Steady-state (fast) inactivation of NaV channels was measured with a paired-pulse protocol. From the holding potential, cells were stepped to varying test potentials between −120 mv (Nar 1.7) and +20 mV (pre-pulse) prior to a test pulse to −20 mV.
Current densities were obtained by dividing Na+ current (INa) amplitude by membrane capacitance. Current-voltage relationships were generated by plotting current density as a function of the […]. Conductance (GNa) was calculated by the following equation:
GNa=INa/(Vm−Erev) • where INa is the current amplitude at voltage Vm, and Erev is the Na^+ reversal potential.
To test whether given peptides (10 in total, listed below) had modulatory effects on NaV1.7-mediated Na^+ currents, we used patch-clamp electrophysiology of human embryonic kidney cells stably expressing NaV1.7 (HEK-NaV1.7).

[3] = molecular target: T3, human NaV1.5 channel (Homo sapiens, UniProt Q14524); test: Whole-cell patch-clamp electrophysiology in HEK293 cells stably expressing NaV1.5 (HEK-NaV1.5); details: HEK-NaV1.5 cells, 500 nM peptide vs control
T3 construct: expressed in transfected cells; host or cells: HEK293 cells stably expressing human NaV1.5 (G418 selection)
T3 sequence (Q14524 whole entry): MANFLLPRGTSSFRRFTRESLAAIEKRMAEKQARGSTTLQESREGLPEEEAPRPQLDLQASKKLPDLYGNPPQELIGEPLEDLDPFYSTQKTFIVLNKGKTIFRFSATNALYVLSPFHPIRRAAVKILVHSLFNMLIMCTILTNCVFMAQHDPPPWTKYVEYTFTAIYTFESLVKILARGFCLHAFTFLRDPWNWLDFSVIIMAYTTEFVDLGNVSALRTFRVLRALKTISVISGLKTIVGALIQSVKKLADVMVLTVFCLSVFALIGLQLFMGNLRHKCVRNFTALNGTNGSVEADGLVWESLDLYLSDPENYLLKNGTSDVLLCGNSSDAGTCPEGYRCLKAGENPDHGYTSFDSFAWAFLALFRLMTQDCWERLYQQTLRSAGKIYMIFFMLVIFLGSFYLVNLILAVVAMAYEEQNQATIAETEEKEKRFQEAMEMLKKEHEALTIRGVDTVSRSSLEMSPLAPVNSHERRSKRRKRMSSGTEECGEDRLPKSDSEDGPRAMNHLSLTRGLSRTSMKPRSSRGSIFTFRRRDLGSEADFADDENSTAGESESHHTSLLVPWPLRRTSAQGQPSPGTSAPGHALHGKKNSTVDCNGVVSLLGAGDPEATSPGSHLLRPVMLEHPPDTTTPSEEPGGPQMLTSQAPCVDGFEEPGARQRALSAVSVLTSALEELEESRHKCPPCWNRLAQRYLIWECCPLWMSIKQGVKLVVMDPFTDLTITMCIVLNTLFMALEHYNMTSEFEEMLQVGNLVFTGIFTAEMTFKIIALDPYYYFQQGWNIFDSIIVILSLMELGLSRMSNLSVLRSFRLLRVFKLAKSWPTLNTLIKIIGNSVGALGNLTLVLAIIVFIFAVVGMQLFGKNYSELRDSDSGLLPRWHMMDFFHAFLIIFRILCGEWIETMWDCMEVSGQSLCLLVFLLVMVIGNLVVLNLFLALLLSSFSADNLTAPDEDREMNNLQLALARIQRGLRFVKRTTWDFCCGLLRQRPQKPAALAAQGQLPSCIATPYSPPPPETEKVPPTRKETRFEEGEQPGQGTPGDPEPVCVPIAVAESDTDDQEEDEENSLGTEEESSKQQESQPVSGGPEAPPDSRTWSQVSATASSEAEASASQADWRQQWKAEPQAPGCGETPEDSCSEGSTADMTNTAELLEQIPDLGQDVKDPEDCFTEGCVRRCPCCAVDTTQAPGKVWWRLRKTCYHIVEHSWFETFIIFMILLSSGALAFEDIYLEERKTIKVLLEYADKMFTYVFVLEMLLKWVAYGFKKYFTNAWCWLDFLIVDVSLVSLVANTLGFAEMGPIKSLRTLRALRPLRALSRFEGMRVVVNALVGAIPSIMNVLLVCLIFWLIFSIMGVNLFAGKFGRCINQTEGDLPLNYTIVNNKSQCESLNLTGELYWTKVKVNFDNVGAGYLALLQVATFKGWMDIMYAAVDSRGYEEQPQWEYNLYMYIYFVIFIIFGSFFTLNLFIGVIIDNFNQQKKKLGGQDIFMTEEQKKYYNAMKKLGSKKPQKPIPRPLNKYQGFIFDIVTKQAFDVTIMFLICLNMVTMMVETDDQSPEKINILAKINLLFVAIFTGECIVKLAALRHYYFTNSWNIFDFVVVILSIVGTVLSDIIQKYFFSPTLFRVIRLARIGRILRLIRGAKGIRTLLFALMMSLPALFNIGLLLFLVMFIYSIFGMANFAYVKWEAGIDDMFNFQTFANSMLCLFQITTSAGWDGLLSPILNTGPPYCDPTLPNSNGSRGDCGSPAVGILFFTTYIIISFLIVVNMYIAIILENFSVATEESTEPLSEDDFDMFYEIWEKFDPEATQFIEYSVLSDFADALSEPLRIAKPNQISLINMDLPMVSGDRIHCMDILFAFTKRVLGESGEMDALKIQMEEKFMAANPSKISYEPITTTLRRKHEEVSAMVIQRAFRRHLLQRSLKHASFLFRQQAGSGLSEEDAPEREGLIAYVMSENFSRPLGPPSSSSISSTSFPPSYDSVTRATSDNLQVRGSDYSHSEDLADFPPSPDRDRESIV
Protocol: HEK293 cells were maintained in DMEM and F-12 (Invitrogen, Carlsbad, CA), supplemented with 0.05% glucose, 0.5 mM pyruvate, 10% fetal bovine serum, 100 units/ml penicillin, and 100 μg/ml streptomycin (Invitrogen), and incubated at 37° C. with 5% CO2. HEK293 cells stably expressing the human NaV1.5 channel (hereafter referred to as HEK-NaV1.5 cells) were maintained similarly except for the addition of 500 μg/ml G418 (Invitrogen) to maintain stable NaV 1.5 expression. Cells were grown to 80-90% confluence, washed and re-plated at very low density prior to electrophysiological recordings.
as §1, §2
To test whether Peptide 1, 3, 7 and 8 had any modulatory effects on NaV 1.5-mediated Na^+ currents, we used whole-cell patch-clamp electrophysiology in HEK293 cells stably expressing NaV1.5 (HEK-NaV1.5) channels; each group was either treated with peptides 1, 3, 7 and 8 (500 nM from a stock solution dissolved in H2O or DMSO) or H2O and 0.1% DMSO alone (control).

| Sequence | effect on NaV1.6 currents [1] | effect on NaV1.6 currents ([1]; listed as peptide 3) | Peak current density, Nav1.6 (Treatment) ([1]; 500 nM peptide) | blockage of the NaV1.7 sodium channel [2] | effect on NaV1.5 currents [3] | effect on NaV1.6 currents ([1]; listed as peptide 1) | peak current density, treatment (text of b104) ([1]; 500 nM peptide, control 194.86, n=8, treatment n=7, sentence cites FIG. 14A-C) | effect on NaV1.6 currents ([1]; listed as peptide 8) |
| --- | --- | --- | --- | --- | --- | --- | --- | --- |
| DCLGLFRKCIPDMLKCCRFNLVCSRLHKWCKYVF (Synthetic Peptide 3) | suppressed | suppresses | 25.32 ± 4.1 (6)^b | substantial blockage | suppressed | – | – | – |
| IGEKVTIRLITSTNINDDFNIYQQKPGEPPKLL (Synthetic Peptide 7) | potentiates | – | 121.14 ± 16.6 (10)^c | substantial blockage | no effects | – | – | – |
| SDEIPATFGGGTDAGL (Synthetic Peptide 1) | suppressed | – | 25.65 ± 5.2 (13)^a | substantial blockage | no effects | suppresses | – | – |
| DCLGFMRKCLSTTDLDDDWNCCRPNLVCSRTHKWCKYVF (Synthetic Peptide 8) | no effects | – | 59.75 ± 5.4 (6)^NS | substantial blockage | no effects | – | 104.78 | no statistically significant effect |
